IntAct's records for PubMed 7973632

B1: Receptor-like protein kinase 5 (Arabidopsis thaliana (Mouse-ear cress)), P47735 (parent)
chain: MLYCLILLLCLSSTYLPSLSLNQDATILRQAKLGLSDPAQSLSSWSDNNDVTPCKWLGVSCDATSNVVSVDLSSFMLVGPFPSILCHLPSLHSLSLYNNSINGSLSADDFDTCHNLISLDLSENLLVGSIPKSLPFNLPNLKFLEISGNNLSDTIPSSFGEFRKLESLNLAGNFLSGTIPASLGNVTTLKELKLAYNLFSPSQIPSQLGNLTELQVLWLAGCNLVGPIPPSLSRLTSLVNLDLTFNQLTGSIPSWITQLKTVEQIELFNNSFSGELPESMGNMTTLKRFDASMNKLTGKIPDNLNLLNLESLNLFENMLEGPLPESITRSKTLSELKLFNNRLTGVLPSQLGANSPLQYVDLSYNRFSGEIPANVCGEGKLEYLILIDNSFSGEISNNLGKCKSLTRVRLSNNKLSGQIPHGFWGLPRLSLLELSDNSFTGSIPKTIIGAKNLSNLRISKNRFSGSIPNEIGSLNGIIEISGAENDFSGEIPESLVKLKQLSRLDLSKNQLSGEIPRELRGWKNLNELNLANNHLSGEIPKEVGILPVLNYLDLSSNQFSGEIPLELQNLKLNVLNLSYNHLSGKIPPLYANKIYAHDFIGNPGLCVDLDGLCRKITRSKNIGYVWILLTIFLLAGLVFVVGIVMFIAKCRKLRALKSSTLAASKWRSFHKLHFSEHEIADCLDEKNVIGFGSSGKVYKVELRGGEVVAVKKLNKSVKGGDDEYSSDSLNRDVFAAEVETLGTIRHKSIVRLWCCCSSGDCKLLVYEYMPNGSLADVLHGDRKGGVVLGWPERLRIALDAAEGLSYLHHDCVPPIVHRDVKSSNILLDSDYGAKVADFGIAKVGQMSGSKTPEAMSGIAGSCGYIAPEYVYTLRVNEKSDIYSFGVVLLELVTGKQPTDSELGDKDMAKWVCTALDKCGLEPVIDPKLDLKFKEEISKVIHIGLLCTSPLPLNRPSMRKVVIMLQEVSGAVPCSSPNTSKRSKTGGKLSPYYTEDLNSV
partner: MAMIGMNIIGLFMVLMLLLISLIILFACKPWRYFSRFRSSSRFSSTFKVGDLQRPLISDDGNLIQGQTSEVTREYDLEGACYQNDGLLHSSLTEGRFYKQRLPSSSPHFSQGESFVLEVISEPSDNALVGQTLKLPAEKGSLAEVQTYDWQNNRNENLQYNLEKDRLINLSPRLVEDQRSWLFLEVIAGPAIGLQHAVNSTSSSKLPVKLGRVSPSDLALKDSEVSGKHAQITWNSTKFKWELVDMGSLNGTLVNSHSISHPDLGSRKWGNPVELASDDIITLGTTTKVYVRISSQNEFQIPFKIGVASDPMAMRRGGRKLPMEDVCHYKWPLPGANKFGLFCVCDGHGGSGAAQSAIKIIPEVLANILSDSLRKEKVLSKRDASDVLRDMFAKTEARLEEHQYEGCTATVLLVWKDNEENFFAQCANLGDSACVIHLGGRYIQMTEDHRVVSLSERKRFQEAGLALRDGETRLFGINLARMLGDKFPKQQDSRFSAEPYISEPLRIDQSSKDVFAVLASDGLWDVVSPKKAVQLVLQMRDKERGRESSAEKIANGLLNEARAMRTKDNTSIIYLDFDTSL

Variants of: B1
Conditions: with KAPP

| Variant | effect of a mutation on the interaction |
| --- | --- |
| K711E | disrupting interaction |
